Laboratory results taken from patent US20230227838A1, “ENHANCED CELL SURVIVAL AGAINST BIOTIC AND ABIOTIC STRESSES THROUGH SALICYLICK ACID-INDUCED NPR1 CONDENSATES” (priority 2020, published 2023).
Substitutions are numbered along the chain they refer to.

T1: Myc-CUL3 (Arabidopsis thaliana, UniProt Q9ZVH4 1-732)
T1 construct: also called AtCUL3A (AT1G26830); not shown: N-terminal Myc tag (pEG203)
T1 sequence (looked up): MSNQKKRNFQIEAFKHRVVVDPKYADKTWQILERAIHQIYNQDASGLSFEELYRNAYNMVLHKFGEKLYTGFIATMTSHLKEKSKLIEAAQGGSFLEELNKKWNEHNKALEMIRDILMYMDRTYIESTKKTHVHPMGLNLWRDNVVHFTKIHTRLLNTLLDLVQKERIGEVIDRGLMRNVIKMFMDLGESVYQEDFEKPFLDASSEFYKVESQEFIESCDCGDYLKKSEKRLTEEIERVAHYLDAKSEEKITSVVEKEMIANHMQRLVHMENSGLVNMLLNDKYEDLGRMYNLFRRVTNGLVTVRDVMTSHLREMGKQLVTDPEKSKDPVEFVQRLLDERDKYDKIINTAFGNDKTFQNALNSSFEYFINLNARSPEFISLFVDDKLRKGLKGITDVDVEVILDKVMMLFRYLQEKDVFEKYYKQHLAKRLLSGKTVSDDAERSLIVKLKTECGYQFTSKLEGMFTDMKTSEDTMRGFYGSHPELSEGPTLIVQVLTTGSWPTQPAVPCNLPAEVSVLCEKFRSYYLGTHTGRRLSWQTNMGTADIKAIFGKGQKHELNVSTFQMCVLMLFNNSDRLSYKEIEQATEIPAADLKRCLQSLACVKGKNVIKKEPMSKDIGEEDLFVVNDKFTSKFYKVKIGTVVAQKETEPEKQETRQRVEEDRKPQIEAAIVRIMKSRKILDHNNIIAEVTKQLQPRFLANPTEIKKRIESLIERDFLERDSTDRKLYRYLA

B1: ACTD: NPR1 with the C-terminal domain (CTD) deleted (protein)
chain: MDTTIDGFADSYEISSTSFVATDNTDSSIVYLAAEQVLTGPDVSALQLLSNSFESVFDSPDDFYSDAKLVLSDGREVSFHRCVLSARSSFFKSALAAAKKEKDSNNTAAVKLELKEIAKDYEVGFDSVVTVLAYVYSSRVRPPPKGVSECADENCCHVACRPAVDFMLEVLYLAFIFKIPELITLYQRHLLDVVDKVVIEDTLVILKLANICGKACMKLLDRCKEIIVKSNVDMVSLEKSLPEELVKEIIDRRKELGLEVPKVKKHVSNVHKALDSDDIELVKLLLKEDHTNLDDACALHFAVAYCNVKTATDLLKLDLADVNHRNPRGYTVLHVAAMRKEPQLILSLLEKGASASEATLEGRT
modifications: left off: small tags and cut ends
notes: NPR1 with the C-terminal domain (CTD) deleted
B2: CTD: C-terminal domain (CTD) of NPR1 (protein)
chain: ALMIAKQATMAVECNNIPEQCKHSLKGRLCVEILEQEDKREQIPRDVPPSFAVAADELKMTLLDLENRVALAQRLFPTEAQAAMEIAEMKGTCEFIVTSLEPDRLTGTKRTSPGVKIAPFRILEEHQSRLKALSKTVELGKRFFPRCSAVLDQIMNCEDLTQLACGEDDTAEKRLQKKQRYMEIQETLKKAFSEDNLELGNSSLTDSTSSTSKSTGGKRSNRKLSHRRR
modifications: left off: large carriers
notes: C-terminal domain (CTD) of NPR1
B3: rdr1-HA (other)
chain: MDTTIDGFADSYEISSTSFVATDNTDSSIVYLAAEQVLTGPDVSALQLLSNSFESVFDSPDDFYSDAKLVLSDGREVSFHRCVLSARSSFFKSALAAAKKEKDSNNTAAVKLELKEIAKDYEVGFDSVVTVLAYVYSSRVRPPPKGVSEAADENAAHVAARPAVDFMLEVLYLAFIFKIPELITLYQRHLLDVVDKVVIEDTLVILKLANICGKACMKLLDRCKEIIVKSNVDMVSLEKSLPEELVKEIIDRRKELGLEVPKVKKHVSNVHKALDSDDIELVKLLLKEDHTNLDDACALHFAVAYCNVKTATDLLKLDLADVNHRNPRGYTVLHVAAMRKEPQLILSLLEKGASASEATLEGRTALMIAKQATMAVECNNIPEQCKHSLKGRLCVEILEQEDKREQIPRDVPPSFAVAADELKMTLLDLENRVALAQRLFPTEAQAAMEIAEMKGTCEFIVTSLEPDRLTGTKRTSPGVKIAPFRILEEHQSRLKALSKTVELGKRFFPRCSAVLDQIMNCEDLTQLACGEDDTAEKRLQKKQRYMEIQETLKKAFSEDNLELGNSSLTDSTSSTSKSTGGKRSNRKLSHRRR
notes: not shown: C-terminal HA tag (pLN462)
B4: rdr1: NPR1 with cysteine cluster of RDR1 mutated (C150/155/156/160A) (protein)
chain: B3 chain
modifications: A. thaliana npr1 rdr1 protein
B5: rdr2: NPR1 with cysteine cluster of RDR2 mutated (C378/385/394A) (protein)
chain: B3 chain with A150C, A155C, A156C, A160C, C378A, C385A, C394A
modifications: A. thaliana npr1 rdr2 protein
B6: nls: NPR1 point mutant with enhanced cytoplasmic localization, blocking nuclear function (protein)
chain: B3 chain with A150C, A155C, A156C, A160C, K541Q, K542Q, R544G, K553Q, K554Q
modifications: left off: small tags and cut ends

Key:
[1] = tested on: cytoplasmic condensates (SINCs); experiment: Confocal imaging of localization and condensate (body) formation of GFP-fused NPR proteins and variants; assay type: cell-based, Nicotiana benthamiana; settings: no SA treatment / mock
Experimental: (§1) Plant transformation: For plant transformations, the Agrobacterium tumefaciens strain GV3101 was transformed with plant binary vectors carrying the indicated transgenes. For stable expression in Arabidopsis, a floral dipping method was used. For transient expression in N benthamiana, the Agrobacterium carrying the indicated construct was cultured overnight at 28° C. in Luria-Bertani (LB) broth medium supplemented with appropriate antibiotics: spectinomycin (100 μg/ml), kanamycin (50 μg/ml), gentamycin (50 μg/ml), and rifampicin (25 μg/ml). The obtained culture was re-inoculated at 1:10 into fresh growth media with antibiotics and grown for another 4 hr. Cells were then spun down at 1,600 g for 10 min, and inoculum was prepared by resuspending cells to OD600 nm=1 in double distilled water (DDW) containing 200 μM acetosyringone (Sigma). Unless otherwise stated, for co-IP, co-localization, and BiFC assays in N. benthamiana, the proteins were co-expressed at 1:1 mixture of the relevant Agrobacteria inoculums. In all BiFC assays, the pair of YN/YC fusions was co-expressed together with free mCherry to mark the cytoplasm and nucleus, mCherry-NLS to mark the nucleus only, or mCherry-fused test proteins for co-localization analysis. The inoculum was pressure infiltrated into N. benthamiana leaves at the abaxial side using 1 ml syringe without the needle. Due to low overall levels of NPR1-GFP in transgenic plants, a transient expression assay in Arabidopsis seedlings was used to monitor NPR1-GFP subcellular localization after SA treatment (FIG. 2B). To limit the imaging time in this transient assay (2 hours), a higher baseline SA concentration had to be used. Seeds of WT (Col-0) Arabidopsis were germinated on solid half-strength Murashige and Skoog (1/2 MS) medium and grown for 4 days. Agrobacterium carrying the indicated constructs was grown overnight in LB medium supplemented with appropriate antibiotics. The obtained culture was re-inoculated at 1:10 into virulence induction medium [50.78 mM MES, 0.5% Glucose, 1.734 mM NaH2PO4, 5% of 20X-AB mix (373.9 mM NH4C1, 24.34 mM MgSO4, 40.23 mM KCl, 1.36 mM CaCl2 and 0.18 mM FeSO4·7H2O), 200 μM acetosyringone] supplemented with 25 μg/ml rifampicin and grown for another 24 hr at 28° C. to OD600=0.8 (inoculum). Seedlings were vacuum-infiltrated with the inoculum, and at 48 hpi (hours post inoculation), treatments were performed by submerging the transformed seedlings in water or SA solution at indicated concentrations for 2 hr. Entire cotyledons were sampled for microscopy.
Confocal laser scanning microscopy. Unless otherwise indicated, all imaging data and micrographs for single protein imaging, co-localizations, BiFC and time-lapse were obtained from the transient expression in N. benthamiana using the relevant Agrobacteria strains. All imaging was done with confocal laser scanning fluorescence microscopy using Zeiss 880 airyscan inverted confocal microscope with a 40×/1.2 water correction objective. GFP (eGFP) was excited with a 488 nm argon laser and emission was collected with a 505-530 nm band pass filter. YFP was excited with an argon laser using a 514 nm beam splitter, and emission was detected with a 520-555 nm band pass filter. mCherry was excited with a 561 nm diode laser, and emission was detected with a 575-615 nm band pass filter. When eGFP/YFP were imaged together with mCherry, a spectral GASP detector was used to collect emission from eGFP/YFP. Propidium iodide (PI) was excited with 488 nm argon laser and emission was detected with a 590-620 nm band pass filter. Time-lapse imaging was carried out on live leaf tissue samples from N. benthamiana plants transiently expressing the protein of interest. Image acquisition was done in 5 min intervals for the duration of 2 hr by scanning 30 consecutive focal planes along the Z-axis covering the entire thickness of an epidermal cell. Z-projection was done to each time frame stack before composing a final time-lapse file. […]

[2] = tested on: CUL3; experiment: Co-IP of Myc-CUL3 with HA-fused NPR1 or variants; assay type: binding, Arabidopsis thaliana; settings: for CUL3 pull-down signal in co-IP: 1 mM SA for 5 hr
Experimental: as §1
Protein analysis and IP. Recombinant protein analysis was performed using transient expression in N. benthamiana, or stable over-expression in transgenic Arabidopsis, or expression in E. coli. Total protein extraction from plants was performed by homogenizing leaf tissue in the plant extraction buffer [50 mM Tris-HCl (pH 7.5), 150 mM NaCl, 5 mM EDTA, 0.2% Triton X-100, 0.2% Nonidet P-40] supplemented with 1 mM PMSF, 100 μM MG132, and EDTA-free protease inhibitor cocktail (Roche). For ubiquitinated protein analysis in plants, 100 μM of DUB (deubiquitinase) inhibitor (LifeSensors) and 10 mM NEM were added. Next, the lysates were cleared by centrifugation at 14,000 rpm for 15 min followed by filtering through a 0.2 μm filter. […] Pull-downs or IP experiments were done on total protein extracts by incubating protein samples in the lysis buffer overnight with indicated affinity tag or antibody conjugated to agarose or magnetic beads: GFP-trap agarose beads (Chromotek) for GFP fusions; RFP-trap agarose beads (Chromotek) for mCherry fusions; anti-HA magnetic beads (ThermoFisher) for HA tag fusions; anti-DYKDDDDK coupled magnetic agarose (ThermoFisher) for FLAG tag fusions; and glutathione magnetic agarose (ThermoFisher) for GST fusions. Unless otherwise indicated, after pull-down/IP, beads were washed 3 times and proteins were eluted by boiling in the 2×SDS sample buffer. […]

[3] = target: T1, Myc-CUL3; experiment: co-IP, N. benthamiana, 1 mM SA 5 hr
[4] = tested on: Psm ES4326/AvrRpt2-mediated cell death; experiment: Cell death (conductivity/electrolyte leakage, trypan blue) after Psm ES4326/AvrRpt2 inoculation; assay type: in vivo, Arabidopsis thaliana; settings: transgenic plants expressing the mutant in npr1-2 background; 1 mM SA 24 hr before inoculation
Experimental: Chemical treatment, pathogen infection and cell death assays. […] At 2 days, the bacterial colonies were scored.
Trypan blue staining. Leaves of three-week-old Arabidopsis infected with Psm ES4326/AvrRpt2 were sampled at 1 dpi, boiled in 95% ethanol until completely bleached, followed by boiling for 3 min in a 1:1 mixture of 95% ethanol and staining solution (10 ml lactic acid, 10 ml glycerol, 10 g phenol and 10 mg trypan blue, dissolved in 10 ml DDW). The leaves were then de-stained in 2.5 g/ml chloral hydrate solution and transferred to 70% glycerol for subsequent imaging.

| Molecule | condensate formation in the absence of SA (constitutive) [1] | CUL3 pull-down signal in co-IP [2] | protection against cell death induced by Psm ES4326/AvrRpt2 (SA-mediated survival phenotype) [4] | also measured |
| --- | --- | --- | --- | --- |
| B1 | formed constitutive condensates | – | – | CUL3 pull-down in co-IP in the absence of SA ([2]; absence of SA): significantly enhanced the interaction with CUL3 |
| B2 | – | – | – | competition with CUL3 for interaction with BTB ([2]; Myc-CUL3, BTB-HA and CTD-GFP co-expressed): outcompeted CUL3 for interaction with BTB |
| B3 | – | – | – | binding result [3]: binds |
| B4 | formed cytoplasmic condensates in the absence of SA treatment | strong interactions with CUL3 | no protection against cell death | – |
| B5 | formed cytoplasmic condensates in the absence of SA treatment | strong interactions with CUL3 | stronger protection | – |
| B6 | – | significantly stronger CUL3 pull-down signals | – | – |
